Measured values as given in patent US20200247891A1 (University of California, published 2020).

Biological target: αvβ8 integrin on β8-transfected SW480 cells and β8-transfected SNB-19 cells (UniProt P26012 43-769; P06756 31-1048)
Experiment: cell-based or functional assay

Chain of αvβ8 integrin on β8-transfected SW480 cells and β8-transfected SNB-19 cells (P26012 43-769, chain 1 of 2): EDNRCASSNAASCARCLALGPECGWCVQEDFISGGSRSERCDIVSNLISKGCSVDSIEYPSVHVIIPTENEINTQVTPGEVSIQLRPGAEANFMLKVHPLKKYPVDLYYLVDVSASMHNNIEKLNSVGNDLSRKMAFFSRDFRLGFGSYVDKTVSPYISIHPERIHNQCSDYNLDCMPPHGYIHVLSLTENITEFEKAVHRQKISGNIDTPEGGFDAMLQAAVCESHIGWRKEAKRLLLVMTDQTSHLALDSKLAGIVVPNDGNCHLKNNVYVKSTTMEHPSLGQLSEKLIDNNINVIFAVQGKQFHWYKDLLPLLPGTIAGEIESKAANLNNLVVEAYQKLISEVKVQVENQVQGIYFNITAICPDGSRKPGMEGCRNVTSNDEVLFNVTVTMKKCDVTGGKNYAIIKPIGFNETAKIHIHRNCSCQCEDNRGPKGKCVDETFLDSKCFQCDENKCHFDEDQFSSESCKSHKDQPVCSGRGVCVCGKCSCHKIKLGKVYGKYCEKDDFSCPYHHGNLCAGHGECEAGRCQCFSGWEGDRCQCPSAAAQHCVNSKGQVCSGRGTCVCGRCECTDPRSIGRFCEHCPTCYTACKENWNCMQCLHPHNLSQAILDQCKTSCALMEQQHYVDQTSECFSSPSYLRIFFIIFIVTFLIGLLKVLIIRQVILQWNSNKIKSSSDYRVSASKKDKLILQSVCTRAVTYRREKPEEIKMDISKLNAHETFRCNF
Chain of αvβ8 integrin on β8-transfected SW480 cells and β8-transfected SNB-19 cells (P06756 31-1048, chain 2 of 2): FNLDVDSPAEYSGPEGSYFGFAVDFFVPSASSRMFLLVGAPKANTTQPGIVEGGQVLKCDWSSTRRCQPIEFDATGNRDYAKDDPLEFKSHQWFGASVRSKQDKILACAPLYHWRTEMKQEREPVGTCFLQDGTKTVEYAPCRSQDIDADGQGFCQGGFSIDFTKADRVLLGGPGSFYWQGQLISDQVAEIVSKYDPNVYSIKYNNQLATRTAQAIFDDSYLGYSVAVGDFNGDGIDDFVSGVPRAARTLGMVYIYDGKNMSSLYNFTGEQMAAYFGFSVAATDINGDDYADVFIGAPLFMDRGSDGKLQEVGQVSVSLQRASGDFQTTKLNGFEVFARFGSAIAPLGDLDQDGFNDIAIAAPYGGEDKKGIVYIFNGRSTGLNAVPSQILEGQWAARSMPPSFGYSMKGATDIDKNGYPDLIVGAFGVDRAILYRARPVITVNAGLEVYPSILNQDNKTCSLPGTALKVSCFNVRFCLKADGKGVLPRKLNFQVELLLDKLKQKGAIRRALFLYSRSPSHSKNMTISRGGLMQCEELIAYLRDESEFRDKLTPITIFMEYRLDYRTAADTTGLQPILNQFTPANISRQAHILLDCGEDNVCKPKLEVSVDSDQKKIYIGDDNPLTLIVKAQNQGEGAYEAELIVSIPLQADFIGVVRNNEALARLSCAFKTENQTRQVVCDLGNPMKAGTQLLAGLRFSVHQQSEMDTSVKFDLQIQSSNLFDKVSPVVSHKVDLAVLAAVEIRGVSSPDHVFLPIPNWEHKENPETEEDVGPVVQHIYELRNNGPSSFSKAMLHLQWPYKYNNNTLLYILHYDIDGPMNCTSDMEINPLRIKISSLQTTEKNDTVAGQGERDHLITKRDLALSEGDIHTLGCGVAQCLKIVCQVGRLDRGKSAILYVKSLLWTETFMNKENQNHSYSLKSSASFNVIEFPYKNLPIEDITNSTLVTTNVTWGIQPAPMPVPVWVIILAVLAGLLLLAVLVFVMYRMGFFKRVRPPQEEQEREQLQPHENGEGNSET

B1: ADWA-11 (antibody, V domains shown)
VH: EVQLQQSGAELVRPGAFVKLSCKASGFNIKDYYMNWVLQRPEQGLEWIGWIDPDNGNTIYDPKFQGKASITADTSSNTAYLQLSSLTSEDTAVYYCARRLLMDYWGQGTSVTVSS
VL: DIVMTQAAPSVPVTPGESVSISCRSTKSLLHFNGNTYLFWFLQRPGQSPQRLIYYMSNLASGVPDRFSGRGSGTDFTLRISRVEAEDVGVYYCMQSLEYPFTFGTGTKLEIK
  IC50 for inhibiting TGFβ activation: < 5 nM
